Measurements published in patent US6903203B2, “Monoclonal antibody to CEA, conjugates comprising said antibody and their therapeutic use” (AstraZeneca UK Ltd., priority 1996, dated 2005).

Tests used:
NSCLC tumours = assay: Three-stage indirect immunohistology on frozen sections, NSCLC tumours; format: binding, human; conditions: NSCLC tumours (n=6), score seen in 1/6 tumours; 2 μg/ml
Procedure: (§1) To assess selectivity, many human normal and tumour tissues have been screened for reactivity with the antibody 806.077, using sensitive three-stage indirect immunohistology on acetone-fixed, frozen cryostat sections.
(§2) Immunohistology was carried out on sections of human tissue obtained either at resection surgery or at post mortem. To preserve optimal morphology and antigenicity, tissues were obtained as fresh as possible, cut into small pieces (about 0.5 cm^3) and flash frozen in liquid nitrogen prior to storage at −80° C. Sections of tissue (6μ) were cut on a cryostat, mounted on polylysine coated slides (e.g. blue TECHMATE™ slides, Dako) and fixed in ice-cold acetone for 2 minutes before being wrapped in foil and stored at −80° C.
(§3) Slides were allowed to defrost at room temperature before being unwrapped from the foil immediately prior to use. Each section was outlined with a diamond marker, and to each section was added either 100 μl 806.077 antibody diluted to 2 μg/ml in Tris-buffered Saline (TBS), or 100 μl CEA/NCA reactive control (A5B7 antibody) at 2 μg/ml in TBS, or 100 μl MOPC isotype control (Sigma Chemical Company, St. Louis, U.S.A., Cat. No. M 9269) at 2 μg/ml in TBS, or relevant positive control such as LP34 (Dako). All subsequent incubations were carried out at room temperature for 30 minutes in a humidified chamber: all wash steps were in TBS with 2 changes. […]

Breast tumours = assay: Three-stage indirect immunohistology on frozen sections, breast tumours; format: binding, human; parameters: key: +++ (strong)=antibody binding to >75% tumour cells; ++ (moderate)=antibody binding to 50%-75% tumour cells; + (weak)=antibody binding to 25%-50% tumour cells; +/− (minimal)=non-focal antibody binding to a small area of tumour cells; −=no staining; conditions: Breast tumours (n=6), score seen in 2/6 tumours; 2 μg/ml
Procedure: as §1, §2, §3

[1] = test system: Post mortem normal tissues; assay: Three-stage indirect immunohistology on frozen sections, post mortem normal tissues; format: binding, human; conditions: cerebellum, mid-brain, cerebrum, smooth muscle, liver, kidney, aorta, stomach, heart; 2 μg/ml
Procedure: as §1, §2, §3

Colon tumours = assay: Three-stage indirect immunohistology on frozen sections, colon tumours; format: binding, human; conditions: tissue culture supernatant neat and diluted 1:10
Procedure: as §1, §2
(§4) Slides were allowed to defrost at room temperature before being unwrapped from the foil immediately prior to use. […] Louis, U.S.A., Cat. No. M 9269) at 2 μg/ml in TBS, or relevant positive control such as LP34 (Dako). All subsequent incubations were carried out at room temperature for 30 minutes in a humidified chamber: all wash steps were in TBS with 2 changes. After incubation, the slides were washed and 100 μl of second antibody reagent, comprising 1/50 rabbit anti-mouse immunoglobulins conjugated to horse radish peroxidase (Dako Patts) and ⅕ normal human serum (Sigma) in TBS was added to each section.
The slides were again incubated and washed in TBS. […]

Lung (NCA reactivity) = assay: Three-stage indirect immunohistology on frozen sections, normal lung; format: binding, human; parameters: key to degree of binding (staining score): +++ (strong)=antibody binding to >75% tumour cells; ++ (moderate)=antibody binding to 50%-75% tumour cells; + (weak)=antibody binding to 25%-50% tumour cells; +/− (minimal)=non-focal antibody binding to a small area of tumour cells; −=no staining
Procedure: as §1, §2, §4
The slides were again incubated and washed in TBS. A final detecting antibody, 100 μl swine anti-rabbit immunoglobulin conjugated to horse radish peroxidase ( 1/50 dilution with ⅕ normal human serum in TBS), was added to each section, incubated and washed thoroughly. DAB substrate (3,3′-diaminobenzidine tetrahydrochloride) was prepared using 1 DAB tablet (Sigma) with hydrogen peroxide (17 μl) in TBS (17 ml), and added dropwise through a fast filter paper (e.g. Whatman Number 4). After 3 minutes incubation the excess DAB was tapped off the slides and the slides were washed in TBS. […]

Ovary tumours = assay: Three-stage indirect immunohistology on frozen sections, ovary tumours; format: binding, human; conditions: Ovary tumours (n=3), any tumour; 2 μg/ml
Procedure: as §1, §2, §3

[2] = test system: Spleen (granulocyte/NCA reactivity); assay: Three-stage indirect immunohistology on frozen sections, normal spleen; format: binding, human
Procedure: as §1, §2, §3

prostate tumours = assay: Three-stage indirect immunohistology on frozen sections, prostate tumours; format: binding, human; conditions: prostate tumours (n=3), any tumour; 2 μg/ml
Procedure: as §1, §2, §3

CEA = biological target: T1, CEA (Homo sapiens, UniProt P06731); assay: CEA binding ELISA; conditions: media of NS0 clones
T1 sequence (P06731 35-676): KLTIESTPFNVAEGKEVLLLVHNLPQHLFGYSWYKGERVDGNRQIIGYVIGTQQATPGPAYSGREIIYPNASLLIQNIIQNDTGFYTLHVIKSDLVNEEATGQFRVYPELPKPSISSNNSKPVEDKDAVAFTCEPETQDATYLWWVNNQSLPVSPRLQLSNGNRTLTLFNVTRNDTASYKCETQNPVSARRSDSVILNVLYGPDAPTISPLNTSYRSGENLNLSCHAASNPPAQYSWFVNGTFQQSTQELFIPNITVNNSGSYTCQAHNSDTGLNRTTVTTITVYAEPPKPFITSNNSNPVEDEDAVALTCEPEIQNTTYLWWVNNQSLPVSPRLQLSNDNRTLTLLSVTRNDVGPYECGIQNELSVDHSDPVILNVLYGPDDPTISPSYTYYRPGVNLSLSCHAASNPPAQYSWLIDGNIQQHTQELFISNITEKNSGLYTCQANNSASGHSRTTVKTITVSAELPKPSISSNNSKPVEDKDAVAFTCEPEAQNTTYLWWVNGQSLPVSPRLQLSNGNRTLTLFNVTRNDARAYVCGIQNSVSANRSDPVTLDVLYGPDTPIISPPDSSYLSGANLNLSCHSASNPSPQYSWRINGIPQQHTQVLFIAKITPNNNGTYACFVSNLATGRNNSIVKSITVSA
Procedure: For the CEA ELISA each well of a 96 well immunoplate (NUNC MAXISORB™) was coated with 50 ng CEA in 50 mM carbonate/bicarbonate coating buffer pH9.6 (buffer capsules—Sigma C3041) and incubated at 4° C. overnight. The plate was washed three times with PBS+0.05% Tween 20 and then blocked 150 μl per well of 1% BSA in PBS +0.05% Tween 20 for 1 hour at room temperature. The plate was washed as previously described, 100 μl of test sample added per well and incubated at room temperature for 2 hours. Again the plate was washed three times with PBS+0.05% Tween 20, 100 μl per well of a 1/500 dilution of HRPO-labelled goat anti-human kappa antibody (Sigma A 7164) was added, in 1% BSA in PBS-Tween 20 and incubated at room temperature on a rocking platform for at least 1 hour. The plate was washed as before and then once more with PBS. To detect binding add 100 μl per well developing solution (one capsule of phosphate-citrate buffer—Sigma P4922—dissolved in 100 mls H2O to which is added one 30 mg tablet o-phenylenediamine dihydrochloride—Sigma P8412) and incubated for up to 15 minutes. The reaction was stopped by adding 75 μl 2M H2SO4, and absorbance read at 490 nm.
Media from wells containing single viable clones was taken for testing and replaced with fresh media (containing G418). […]

Row | Molecule | degree of binding (staining score) (NSCLC tumours) | degree of binding (staining score) (Breast tumours) | reactivity [1] | binding compared to A5B7 (Colon tumours) | staining of normal lung tissues (summary statement) (Lung (NCA reactivity); 4/14 normal lung tissues tested) | degree of binding (staining score) (Lung (NCA reactivity); normal lung (n=14), score seen in 10/14 tissues, 2 μg/ml) | binding compared to A5B7 (Lung (NCA reactivity); normal lung, tissue culture supernatant neat and diluted 1:10) | staining (Ovary tumours) | binding compared to A5B7 ([2]; normal spleen, tissue culture supernatant neat and diluted 1:10) | staining ([2]; spleen (n=6), any of the tissues tested, 2 μg/ml) | staining (prostate tumours) | antibody binding to CEA in an ELISA (CEA)
1 | 806.077 antibody: novel murine anti-CEA monoclonal antibody from hybridoma 806.077, ECACC deposit no. 96022936 (antibody, V domains shown) VH: EVQLQQSGAELVRSGASVKLSCTASGFNIKDNYMHWVKQRPEQGLEWIAWIDPENGDTEYAPKFRGKATLTADSSSNTAYLHLSSLTSEDTAVYYCHVLIYAGYLAMDYWGQGTSVAVSS VL: DIELTQSPAIMSASPGEKVTITCSASSSVTYMHWFQQKPGTSPKLWIYSTSNLASGVPARFSGSGSGTSYSLTISRMEAEDAATYYCQQRSTYPLTFGAGTKLELKRA | ++ (++ (moderate)=antibody binding to 50%-75% tumour cells) | +/− | negative | equivalent binding | minimal staining | − | much reduced binding | No staining | much reduced binding | No staining | No staining | 
2 | Example 75: [A248S,G251T,D253K]HCPB fused via (GGGS)3 linker to N-terminus of humanised 806.077 Fd (HuVH1-HuIgG3), with HuVK4-HuCK light chain (antibody) heavy: HHGGEHFEGEKVFRVNVEDENHINIIRELASTTQIDFWKPDSVTQIKPHSTVDFRVKAEDTVTVENVLKQNELQYKVLISNLRNVVEAQFDSRVRATGHSYEKYNKWETIEAWTQQVATENPALISRSVIGTTFEGRAIYLLKVGKAGQNKPAIFMDCGFHAREWISPAFCQWFVREAVRTYGREIQVTELLDKLDFYVLPVLNIDGYIYTWTKSRFWRKTRSTHTGSSCIGTDPNRNFDAGWCEIGASRNPCDETYCGPAAESEKETKALADFIRNKLSSIKAYLTIHSYSQMMIYPYSYAYKLGENNAELNALAKATVKELASLHGTKYTYGPGATTIYPSAGTSKDWAYDQGIRYSFTFELRDTGRYGFLLPESQIRATCEETFLAIKYVASYVLEHLYGGGSGGGSGGGSEVQLQQSGPGLVRPSQTLSLTCTASGFNIKDNYMHWVRQPPGRGLEWIGWIDPENGDTEYAPKFRGRVTMLADTSKNQFSLRLSSVTAADTAVYYCHVLIYAGYLAMDYWGQGTLVTVSSASTKGPSVFPLAPCSRSTSGGTAALGCLVKDYFPEPVTVSWNSGALTSGVHTFPAVLQSSGLYSLSSVVTVPSSSLGTQTYTCNVNHKPSNTKVDKRVELKTPLGDTTHTCPRCPEPKSCDTPPPCPRCPEPKSCDTPPPCPRCPEPKSCDTPPPCPRCPAPELLGG light: DIQMTQSPSSLSASVGDRVTITCSASSSVTYMHWYQQKPGKAPKLWIYSTSNLASGVPSRFSGSGSGTDYTFTISSLQPEDIATYYCQQRSTYPLTFGQGTKLEIKRTVAAPSVFIFPPSDEQLKSGTASVVCLLNNFYPREAKVQWKVDNALQSGNSQESVTEQDSKDSTYSLSSTLTLSKADYEKHKVYACEVTHQGLSSPVTKSFNRGEC |  |  |  |  |  |  |  |  |  |  |  | positive
